Data published in patent US20240002495A1 (MITSUBISHI TANABE PHARMA, published 2024).

How the values were obtained:
[1] = biological target: T1, biotinylated 6His tag-AviTag-linked mature human IL-33 (residues 112 to 270) (human, UniProt O95760 112-270, biotin on the AviTag portion (BirA)); assay: SPR, IL-33 on chip, Fab supernatant as analyte
T1 construct: made in E. coli; also called biotinylated human IL-33 protein
T1 sequence: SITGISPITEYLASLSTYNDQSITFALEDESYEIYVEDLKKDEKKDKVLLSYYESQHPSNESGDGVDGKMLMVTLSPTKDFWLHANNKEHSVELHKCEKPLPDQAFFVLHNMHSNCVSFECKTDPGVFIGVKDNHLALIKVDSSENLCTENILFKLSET
Description: (§1) The library after the enrichment was used to construct a library of Escherichia coli secreting and expressing Fab. The culture supernatants of several hundreds of clones of Escherichia coli were subjected to measurement of dissociation rate constant (koff) by surface plasmon resonance (SPR) (ProteOn XPR36, available from Bio-Rad Laboratories, Inc.). The biotinylated human IL-33 protein (4 μg/mL) and cynomolgus monkey IL-33 protein (4 μg/mL) were loaded as ligands on a sensor chip (NLC sensor chip, available from Bio-Rad Laboratories, Inc.), to immobilize the human IL-33 protein at an amount equivalent to 1300 to 1600 RU, and the cynomolgus monkeyIL-33 protein at an amount equivalent to 1100 to 1500 RU. The culture supernatant of Escherichia coli was then loaded thereon as analyte to obtain a sensorgram with association phase of one minute and dissociation phase of 10 to 30 minutes. The sensorgram was subjected to interspot correction and blank correction using an SPR data analysis program (ProteOn Manager v3.1.0, available from Bio-Rad Laboratories, Inc.), and then values of koff were determined by off-rate analysis of Langmuir model.

[2] = biological target: T2, 6His-AviTag-linked cynomolgus monkey IL-33 (residues 112 to 269) (cynomolgus monkey, UniProt O95760 112-269 (human entry), biotin on the AviTag portion (BirA) in the SPR of Example 7; used without biotinylation in Example 10); assay: SPR, IL-33 on chip, Fab supernatant as analyte
T2 construct: GenBank EHH57404 printed; also called cynomolgus monkey IL-33 protein; mature cynomolgus monkey IL-33
T2 chain: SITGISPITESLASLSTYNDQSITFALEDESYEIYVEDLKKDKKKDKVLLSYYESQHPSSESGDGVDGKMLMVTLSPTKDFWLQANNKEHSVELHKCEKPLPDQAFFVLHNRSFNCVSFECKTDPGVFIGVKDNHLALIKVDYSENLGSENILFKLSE
Description: as §1

B1: A00-0070 (Fab) (Fab, V domains shown)
VH: EVQLLESGGGLVQPGGSLRLSCAASGFTFSDYYMNWVRQAPGKGLEWVSSISSSSSYIYYADSVKGRFTISRDNSKNTLYLQMNSLRAEDTAVYYCARDIGGMDVWGQGTLVTVSS
VL: QSVLTQPPSASGTPGQRVTISCTGSSSNIGAVYNVHWYQQLPGTAPKLLIYRNNQRPSGVPDRFSGSKSGTSASLAISGLRSEDEADYYCQSYDSSRWVFGGGTKLTVL
notes: parental clone as Fab; also called V29; parental clone (Fab)
With B1 the “Human IL-33 Binding Amount (RU)” value [1] was 571 RU, the koff [1] was 0.00427 s⁻¹ and the “Cynomolgus Monkey IL-33 Binding Amount (RU)” value [2] was 270 RU. It also gave a koff [2] of 0.00522 s⁻¹.

B2: A12-1E04 (Fab) (Fab, V domains shown)
VH: EVQLLESGGGLVQPGGSLRLSCAASGFTFSDYYMNWVRQAPGKGLEWVSSISRYSGYVYYADSVKGRFTISRDNSKNTLYLQMNSLRAEDTAVYYCARDIGGMDVWGQGTLVTVSS
VL: QSVLTQPPSASGTPGQRVTISCTGSSSNIGAVYDVHWYQQLPGTAPKLLIYRNNQRPSGVPDRFSGSKSGTSASLAISGLRSEDEADYYCQSYDSSRWVFGGGTKLTVL
notes: Fab secreted by E. coli, tested as culture supernatant; also called V2
In the case of B2, the “Human IL-33 Binding Amount (RU)” value [1] is reported as 414 RU, the koff [1] is reported as 2.19e-05 s⁻¹ and the “Cynomolgus Monkey IL-33 Binding Amount (RU)” value [2] is reported as 512 RU. For the same binder, the koff [2] was 5.58e-05 s⁻¹.

B3: A12-1H08 (Fab) (Fab, V domains shown)
VH: EVQLLESGGGLVQPGGSLRLSCAASGFTFSDYYMDWVRQAPGKGLEWVSSISRASSYVYYADSVKGRFTISRDNSKNTLYLQMNSLRAEDTAVYYCARDIGGMDVWGQGTLVTVSS
VL: QSVLTQPPSASGTPGQRVTISCTGSSSNIGAVYNVHWYQQLPGTAPKLLIYRNNQRPSGVPDRFSGSKSGTSASLAISGLRSEDEADYYCQSYDSSRWVFGGGTKLTVL
notes: Fab secreted by E. coli, tested as culture supernatant; also called V4
In the case of B3, the “Human IL-33 Binding Amount (RU)” value [1] is reported as 77 RU, the koff [1] is reported as 1e-05 s⁻¹ and the “Cynomolgus Monkey IL-33 Binding Amount (RU)” value [2] is reported as 102 RU. The koff [2] was 7.51e-05 s⁻¹.

B4: A13-1F07 (Fab) (Fab, V domains shown)
VH: EVQLLESGGGLVQPGGSLRLSCAASGFTFSVYYMNWVRQAPGKGLEWVSSISRYSGYVYYADSVKGRFTISRDNSKNTLYLQMNSLRAEDTAVYYCARDIGGMDVWGQGTLVTVSS
VL: QSVLTQPPSASGTPGQRVTISCTGSSSNIGAVYNVHWYQQLPGTAPKLLIYRNNQRPSGVPDRFSGSKSGTSASLAISGLRSEDEADYYCQSYDSRRWVFGGGTKLTVL
notes: Fab secreted by E. coli, tested as culture supernatant; also called V6
In the case of B4, the “Human IL-33 Binding Amount (RU)” value [1] is reported as 112 RU, the koff [1] is reported as 1e-05 s⁻¹ and the “Cynomolgus Monkey IL-33 Binding Amount (RU)” value [2] is reported as 151 RU. The koff [2] was 3.48e-05 s⁻¹.

B5: A10-1C04 (Fab) (Fab, V domains shown)
VH: EVQLLESGGGLVQPGGSLRLSCAASGFTFSDYYMNWVRQAPGKGLEWVSSISRYSSYIYYADSVKGRFTISRDNSKNTLYLQMNSLRAEDTAVYYCARDIGGMDVWGQGTLVTVSS
VL: QSVLTQPPSASGTPGQRVTISCTGSSSNIGAVYDVHWYQQLPGTAPKLLIYRNNQRPSGVPDRFSGSKSGTSASLAISGLRSEDEADYYCQTYDSSRWVFGGGTKLTVL
notes: Fab secreted by E. coli, tested as culture supernatant; also called V1
B5 was tested, and the “Human IL-33 Binding Amount (RU)” value [1] was 26 RU, the koff [1] was no more than 1e-05 s⁻¹ and the “Cynomolgus Monkey IL-33 Binding Amount (RU)” value [2] was 20 RU. The koff [2] was 0.000165 s⁻¹.

B6: A12-1H04 (Fab) (Fab, V domains shown)
VH: EVQLLESGGGLVQPGGSLRLSCAASGFTFSDYYMDWVRQAPGKGLEWVSSISRYSGYVYYADSVKGRFTISRDNSKNTLYLQMNSLRAEDTAVYYCARDIGGMDVWGQGTLVTVSS
VL: QSVLTQPPSASGTPGQRVTISCTGSSSNIGAVYNVHWYQQLPGTAPKLLIYRNNQRPSGVPDRFSGSKSGTSASLAISGLRSEDEADYYCQSYDSSRWVFGGGTKLTVL
notes: Fab secreted by E. coli, tested as culture supernatant; also called V3
B6 was tested, and the “Human IL-33 Binding Amount (RU)” value [1] was 94 RU, the koff [1] was 1.94e-05 s⁻¹ and the “Cynomolgus Monkey IL-33 Binding Amount (RU)” value [2] was 131 RU. For the same binder, the koff [2] was 4.83e-05 s⁻¹.

B7: A13-1F05 (Fab) (Fab, V domains shown)
VH: EVQLLESGGGLVQPGGSLRLSCAASGFTFSDYYMNWVRQAPGKGLEWVSSISRYSGYIYYADSVKGRFTISRDNSKNTLYLQMNSLRAEDTAVYYCARDIGGMDVWGQGTLVTVSS
VL: QSVLTQPPSASGTPGQRVTISCTGSSSNIGAVYNVHWYQQLPGTAPKLLIYRNNQRPSGVPDRFSGSKSGTSASLAISGLRSEDEADYYCQSYDSSRWVFGGGTKLTVL
notes: Fab secreted by E. coli, tested as culture supernatant; also called V5
For B7, the “Human IL-33 Binding Amount (RU)” value [1] was 127 RU, the koff [1] was 1.32e-05 s⁻¹ and the “Cynomolgus Monkey IL-33 Binding Amount (RU)” value [2] was 171 RU. For the same binder, the koff [2] was 5.79e-05 s⁻¹.
